This is an account of results in doi:10.1101/2024.03.31.587457, “The TTLL10 polyglycylase is stimulated by tubulin glutamylation and inhibited by polyglycylation” (bioRxiv, 2025).

A value given as a limit tells only on which side of the number the result lay.

One assay concerns the target T1, TTLL8 (Homo sapiens, UniProt A6PVC2).
T1 construct: residues 39-585; N-terminal GST tag cut with 3C protease; Sf9 baculovirus
T1 sequence (A6PVC2 39-585): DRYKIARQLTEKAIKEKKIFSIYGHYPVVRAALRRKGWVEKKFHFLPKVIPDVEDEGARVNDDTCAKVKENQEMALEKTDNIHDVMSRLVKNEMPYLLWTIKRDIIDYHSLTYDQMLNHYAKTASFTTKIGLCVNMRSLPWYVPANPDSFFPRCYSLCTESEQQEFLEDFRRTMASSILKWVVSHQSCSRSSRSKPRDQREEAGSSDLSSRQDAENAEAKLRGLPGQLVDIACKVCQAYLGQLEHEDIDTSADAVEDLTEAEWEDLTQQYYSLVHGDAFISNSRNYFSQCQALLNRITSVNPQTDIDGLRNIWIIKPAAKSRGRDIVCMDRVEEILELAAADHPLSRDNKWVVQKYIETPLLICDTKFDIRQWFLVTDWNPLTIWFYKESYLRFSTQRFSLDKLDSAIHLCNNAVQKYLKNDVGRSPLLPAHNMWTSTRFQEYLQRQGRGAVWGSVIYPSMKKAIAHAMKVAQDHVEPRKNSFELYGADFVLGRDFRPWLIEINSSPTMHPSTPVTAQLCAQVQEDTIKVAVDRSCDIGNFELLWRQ
The assay can be described thus: LC-MS and MS/MS of glycine added to tubulin tails. Type of assay: biochemical. The settings on record: labelled compound (13C glycine); co-substrate unmodified human microtubules (taxol-stabilised); ATP-dependent; room temperature, 20 min.

The target of the next assay is T2, TTLL10 (Xenopus tropicalis, UniProt A0A8J0T4S7).
T2 construct: residues 105-570; N-terminal GST tag cut with 3C protease; Sf9 baculovirus; untagged for mass spectrometry (C-terminal SNAP fusion only for microscopy)
T2 sequence (A0A8J0T4S7 105-570): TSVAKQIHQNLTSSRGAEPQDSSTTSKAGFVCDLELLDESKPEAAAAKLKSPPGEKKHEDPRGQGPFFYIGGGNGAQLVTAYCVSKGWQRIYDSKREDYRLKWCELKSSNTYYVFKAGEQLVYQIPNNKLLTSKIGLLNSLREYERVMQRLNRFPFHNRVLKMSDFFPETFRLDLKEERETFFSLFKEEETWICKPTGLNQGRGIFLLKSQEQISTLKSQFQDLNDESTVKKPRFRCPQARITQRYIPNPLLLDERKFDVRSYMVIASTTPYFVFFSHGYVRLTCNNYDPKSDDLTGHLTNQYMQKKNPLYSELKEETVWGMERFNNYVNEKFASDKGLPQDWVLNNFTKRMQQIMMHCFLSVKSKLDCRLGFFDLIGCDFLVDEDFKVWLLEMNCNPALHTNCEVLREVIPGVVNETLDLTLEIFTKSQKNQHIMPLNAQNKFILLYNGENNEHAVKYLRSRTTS
The assay can be described thus: LC-MS and MS/MS of glycine added to tubulin tails. Type of assay: biochemical. The settings on record: labelled compound (13C glycine); co-substrate human microtubules monoglycylated by TTLL8; ATP-dependent; room temperature, 20 min.

Assay [1] has as its target monoglycylated/polyglutamylated microtubules (<nG>α ~ 0.1, <nG>β ~ 0.8; <nE>α ~ 18, <nE>β ~ 4) (human) (UniProt P68363). Nature of the assay: TIRF microscopy microtubule binding assay; 500 nM TTLL10-SNAP(647) perfused over biotinylated taxol-stabilised microtubules immobilised on neutravidin; binding buffer 60mM KCl, 10mM NaCl, 40mM PIPES pH 6.8, 2mM Tris pH 8.0, 1.5mM MgCl2, 1mM ATP; peak line-scan intensities normalised to microtubule length and to unmodified microtubules in the same chamber.

For assay [2], the target named is polyglycylated/polyglutamylated microtubules (<nG>α ~ 0.4, <nG>β ~ 1.9, glutamylated by TTLL6) (human) (UniProt P68363). The assay is described as above.
For assay [3], the target named is monoglycylated microtubules (<nG>α ~ 1.1, <nG>β ~ 2.5) (human) (UniProt P68363). The description is as above.
Assay [4] has as its target monoglycylated microtubules (<nG>α ~ 0.8, <nG>β ~ 1.2) (human) (UniProt P68363). The description is as above.
The target in assay [5] is monoglycylated microtubules (α + 1.7G, β + 2.0G) (human) (UniProt P68363). The assay can be described thus: TIRF microscopy microtubule binding assay; binding curve of TTLL10-SNAP(Alexa647) on microtubules immobilised in neutravidin-coated flow chambers; apparent Kd.

As to `NCC(=O)O` [glycine], the “LC-MS and MS/MS of glycine added to tubulin tails” value on TTLL8 was “TTLL8 adds glycines to unmodified microtubules on both α- and β-tubulin”; at TTLL10 it was “TTLL10 can add glycines to both α- and β-tubulin as long as they were previously monoglycylated”.

B1: Alexa647-labeled TTLL10-SNAP (enzyme)
chain: TSVAKQIHQNLTSSRGAEPQDSSTTSKAGFVCDLELLDESKPEAAAAKLKSPPGEKKHEDPRGQGPFFYIGGGNGAQLVTAYCVSKGWQRIYDSKREDYRLKWCELKSSNTYYVFKAGEQLVYQIPNNKLLTSKIGLLNSLREYERVMQRLNRFPFHNRVLKMSDFFPETFRLDLKEERETFFSLFKEEETWICKPTGLNQGRGIFLLKSQEQISTLKSQFQDLNDESTVKKPRFRCPQARITQRYIPNPLLLDERKFDVRSYMVIASTTPYFVFFSHGYVRLTCNNYDPKSDDLTGHLTNQYMQKKNPLYSELKEETVWGMERFNNYVNEKFASDKGLPQDWVLNNFTKRMQQIMMHCFLSVKSKLDCRLGFFDLIGCDFLVDEDFKVWLLEMNCNPALHTNCEVLREVIPGVVNETLDLTLEIFTKSQKNQHIMPLNAQNKFILLYNGENNEHAVKYLRSRTTS
modifications: SNAP-Surface Alexa Fluor 647 dye conjugated to the SNAP tag
The molecule B1 yielded a fold recruitment against the same monoglycylated microtubules without glutamylation in assay [1] of 1.8 fold. In assay [2], this molecule yielded a fold binding against the same polyglycylated microtubules without glutamylation of 3.2 fold. The molecule also registered a percent increase in recruitment on addition of more monoglycines (against microtubules with <nG>α ~ 0.8, <nG>β ~ 1.2) in assay [3] of 17%. In assay [4], this molecule returned a fold recruitment against unmodified microtubules above 6 fold. Besides, the Kd in assay [5] was 600 nM.
